One may read the Kd as the constant that tells how readily two partners part at equilibrium.

To fix the notation:
B1: deoxyhypusine synthase, wild type, His-tagged (enzyme)
chain: MEGSLEREAPAGALAAVLKHSSTLPPESTQVRGYDFNRGVNYRALLEAFGTTGFQATNFGRAVQQVNAMIEKKLEPLSQDEDQHADLTQSRRPLTSCTIFLGYTSNLISSGIRETIRYLVQHNMVDVLVTTAGGVEEDLIKCLAPTYLGEFSLRGKELRENGINRIGNLLVPNENYCKFEDWLMPILDQMVMEQNTEGVKWTPSKMIARLGKEINNPESVYYWAQKNHIPVFSPALTDGSLGDMIFFHSYKNPGLVLDIVEDLRLINTQAIFAKCTGMIILGGGVVKHHIANANLMRNGADYAVYINTAQEFDGSDSGARPDEAVSWGKIRVDAQPVKVYADASLVFPLLVAETFAQKMDAFMHEKNED
B2: eukaryotic translation factor 5A-1 (eIF5A-1), residues 15-151 (domain or fragment)
chain: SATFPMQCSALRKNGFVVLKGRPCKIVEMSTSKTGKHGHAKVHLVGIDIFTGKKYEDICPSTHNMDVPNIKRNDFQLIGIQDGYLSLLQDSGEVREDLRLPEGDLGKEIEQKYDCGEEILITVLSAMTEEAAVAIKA

Experiment [1] has as its target B2. Briefly: MST; + NAD.
Experiment [2] has as its target B2. The experiment in a line: MST; + NAD + SPD.
For experiment [3], the target named is T1, deoxyhypusine synthase delY305_I306, patient-derived variant, His-tagged (human, UniProt P49366 1-369, delY305_I306). Briefly: MST; + NAD.
The target in experiment [4] is deoxyhypusine synthase N173S, patient-derived variant, His-tagged (human, UniProt P49366 1-369, N173S). Briefly: MST; + NAD + SPD.
The target of experiment [5] is T1, deoxyhypusine synthase delY305_I306, …. The experiment in a line: MST; + NAD + SPD.

Turning to B1, the Kd in experiment [1] stood at 27 nM; in experiment [2], 81.7 nM.
Take B2: the values for the dissociation constant Kd in experiment [3], in experiment [4] and in experiment [5] were 368 nM, 426 nM and 1580 nM, respectively.

Values taken from article PMC10042821 (2023).
